Data published in paper PMC11827635 (Science Advances, 2025).

B1: αE-catenin α(CA), as it stands in the tetramer and pentamer (natural protein, mouse, UniProt P26231 1-906, looked up)
chain: MTAVHAGNINFKWDPKSLEIRTLAVERLLEPLVTQVTTLVNTNSKGPSNKKRGRSKKAHVLAASVEQATENFLEKGDKIAKESQFLKEELVVAVEDVRKQGDLMKSAAGEFADDPCSSVKRGNMVRAARALLSAVTRLLILADMADVYKLLVQLKVVEDGILKLRNAGNEQDLGIQYKALKPEVDKLNIMAAKRQQELKDVGNRDQMAAARGILQKNVPILYTASQACLQHPDVAAYKANRDLIYKQLQQAVTGISNAAQATASDDAAQHQGGSGGELAYALNNFDKQIIVDPLSFSEERFRPSLEERLESIISGAALGADSSCTEDDRRERIVAECNAVRQALQDLLSEYMGNAGRKERSDALNSAIDKMTKKTRDLRRQLRKAVMDHVSDSFLETNVPLLVLIEAAKNGNEKEVKEYAQVFREHANKLIEVANLACSISNNEEGVKLVRMSASQLEALCPQVINAALALAAKPQSKLAQENMDLFKEQWEKQVRVLTDAVDDITSIDDFLAVSENHILEDVNKCVIALQEKDVDGLDRTAGAIRGRAAEVIHVVTSEMDNYEPGVYTEKVLEATKLLSNTVMPRFTEQVEAAVEALSSDPAQPMDENEFIDASRLVYDGIRDIRKAVLMIRTPEELDDSDFETEDFDVRSRTSVQTEDDQLIAGQSARAIMAQLPQEQKAKIAEQVASFQEEKSKLDAEVSKWDDSGNDIIVLAKQMCMIMMEMTDFTRGKGPLKNTSDVISAAKKIAEAGSRMDKLGRTIADHCPDSACKQDLLAYLQRIALYCHQLNICSKVKAEVQNLGGELVVSGVDSAMSLIQAAKNLMNAVVQTVKASYVASTKYQKSQGMASLNLPAVSWKMKAPEKKPLVKREKQDETQTKIKRASQKKHVNPVQALSEFKAMDSI
notes: αE-catenin, α(CA); residues 690 to 903 are modelled in PDB 9DVA; single chain of m5, m6, m11 and m18, written for the pairs that touch; also called αE-catenin ABD (in the structure); ABD1; source: FreeStyle 293-F, co-expressed and purified within the cadherin-catenin–vinculin complex

Tests used:
[1] = target: the molecule itself; assay: cryo-EM structure; 2.5 μM tetramer premixed with 5 μM afadin-CC, added to 0.6 μM F-actin on the grid; straight filaments 3.1 Å, curved filaments decorated along one strand 4.1 Å
[2] = target: B1; assay: as above; conditions: both partners purified

binding result [2] | Binder | binding result [1]
 | B1 | binds
binds | afadin coiled-coil region (afadin-CC) (domain or fragment, mouse, UniProt Q9QZQ1-3 1393-1602, looked up, afadin, coiled-coil region (afadin-CC); residues 1508 to 1578 are modelled in PDB 9DVA; also called afadin-CC domain; source: FreeStyle 293-F, purified (anti-GFP beads, TEV, MonoQ, Superdex 200); not shown: GFP, N-terminal, cleaved) ANQAGPQSAQVAAAEWKKREEHQRWYEKEKARLEEERERKRREQERKLGQMRSQTLNPASFSPLATQAKPEKPSTLQRPQETVIRELQPQQQPRTIERKDLQYITISKEELSSGDSLSPDPWKRDAREKLEKQQQMHIVDMLSKEIHELQNKVDRTAEESDRLRKLMLEWQFQKRLQESKQKDEDDDEEEDDDVDTMLIMQRLEAERRAR | 
